Test results taken from paper doi:10.1101/2022.10.05.510992.

Target: Sodium-bicarbonate co-transporter NBCn1 (SLC4A7), native in human cells (human (endogenous in MCF-7 and HEK293T)) (UniProt Q9Y6M7)
Assay: proximity ligation

Chain of UniProt Q9Y6M7 (Q9Y6M7 whole entry): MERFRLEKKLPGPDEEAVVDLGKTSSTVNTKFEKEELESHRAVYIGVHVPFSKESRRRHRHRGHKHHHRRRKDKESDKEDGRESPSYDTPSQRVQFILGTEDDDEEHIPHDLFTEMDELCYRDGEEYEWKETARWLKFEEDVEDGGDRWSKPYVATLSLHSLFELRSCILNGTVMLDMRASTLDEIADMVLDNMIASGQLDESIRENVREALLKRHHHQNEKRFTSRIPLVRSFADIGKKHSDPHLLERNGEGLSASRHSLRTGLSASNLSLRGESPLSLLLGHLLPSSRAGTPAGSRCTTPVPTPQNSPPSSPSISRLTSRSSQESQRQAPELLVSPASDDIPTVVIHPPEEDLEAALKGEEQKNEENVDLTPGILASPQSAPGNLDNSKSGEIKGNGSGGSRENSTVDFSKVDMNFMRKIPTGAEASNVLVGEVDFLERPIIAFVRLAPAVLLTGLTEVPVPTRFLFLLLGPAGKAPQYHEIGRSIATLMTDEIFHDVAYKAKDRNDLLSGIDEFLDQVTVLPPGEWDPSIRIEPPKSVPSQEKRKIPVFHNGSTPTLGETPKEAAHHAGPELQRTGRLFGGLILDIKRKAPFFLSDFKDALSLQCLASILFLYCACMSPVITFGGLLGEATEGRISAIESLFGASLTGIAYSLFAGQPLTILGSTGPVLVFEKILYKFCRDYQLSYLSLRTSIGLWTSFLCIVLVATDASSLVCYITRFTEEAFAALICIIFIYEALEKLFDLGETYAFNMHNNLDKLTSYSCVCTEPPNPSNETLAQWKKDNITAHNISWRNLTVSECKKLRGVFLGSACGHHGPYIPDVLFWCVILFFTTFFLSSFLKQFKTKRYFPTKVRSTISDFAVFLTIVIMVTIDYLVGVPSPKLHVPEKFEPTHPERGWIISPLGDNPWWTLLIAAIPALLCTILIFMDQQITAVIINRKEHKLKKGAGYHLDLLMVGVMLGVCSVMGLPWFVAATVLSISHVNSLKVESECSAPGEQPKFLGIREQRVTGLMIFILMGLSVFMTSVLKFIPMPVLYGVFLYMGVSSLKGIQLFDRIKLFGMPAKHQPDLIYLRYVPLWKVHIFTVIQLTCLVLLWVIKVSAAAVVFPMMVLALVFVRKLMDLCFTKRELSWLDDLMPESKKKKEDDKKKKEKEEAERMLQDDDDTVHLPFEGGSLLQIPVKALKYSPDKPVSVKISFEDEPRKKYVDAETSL

PLA signal, fold over the NBCn1-NHE1 control: 4 fold
PLA signal, fold over the negative control (only NBCn1 antibody): 11 fold
Substance: E-cadherin, native in MCF-7 cells (natural protein)
